These results are taken from PMC8497620, “Structure and inhibition of Cryptococcus neoformans sterylglucosidase to develop antifungal agents” (Nature Communications, 2021).

Sequence of C. neoformans Sgl1 (J9W473 entry or part of it): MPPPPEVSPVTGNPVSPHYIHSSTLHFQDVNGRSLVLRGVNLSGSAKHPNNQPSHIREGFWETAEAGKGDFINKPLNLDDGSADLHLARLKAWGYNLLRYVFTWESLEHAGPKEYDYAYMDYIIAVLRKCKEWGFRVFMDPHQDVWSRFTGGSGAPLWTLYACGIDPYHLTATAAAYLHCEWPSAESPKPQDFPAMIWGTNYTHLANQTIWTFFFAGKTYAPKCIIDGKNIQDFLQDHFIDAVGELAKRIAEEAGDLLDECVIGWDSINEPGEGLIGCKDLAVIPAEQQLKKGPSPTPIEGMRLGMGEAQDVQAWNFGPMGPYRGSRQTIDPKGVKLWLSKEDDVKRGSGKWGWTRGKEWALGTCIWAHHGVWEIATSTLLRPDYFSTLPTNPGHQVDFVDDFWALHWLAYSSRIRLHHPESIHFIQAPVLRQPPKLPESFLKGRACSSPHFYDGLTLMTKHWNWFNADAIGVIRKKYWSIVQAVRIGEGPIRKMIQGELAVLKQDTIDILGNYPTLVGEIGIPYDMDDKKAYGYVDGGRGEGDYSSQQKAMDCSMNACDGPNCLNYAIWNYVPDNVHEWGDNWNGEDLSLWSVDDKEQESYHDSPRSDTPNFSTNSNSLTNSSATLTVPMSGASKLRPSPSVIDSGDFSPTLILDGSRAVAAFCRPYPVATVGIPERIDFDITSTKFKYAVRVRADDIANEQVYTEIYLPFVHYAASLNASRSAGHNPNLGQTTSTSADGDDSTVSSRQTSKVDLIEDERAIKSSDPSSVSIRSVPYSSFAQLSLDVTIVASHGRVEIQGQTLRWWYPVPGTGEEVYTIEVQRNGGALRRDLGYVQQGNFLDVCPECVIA

The target of the series is C. neoformans Sgl1 (Cryptococcus neoformans var. grubii, UniProt J9W473). The series is described as follows: H/D exchange mass spectrometry mapping of disordered regions. The note with it: H/D exchange MS of C. neoformans Sgl1; per peptide (amino acids Start-End, Sequence); Fig S2a. Here is the method:
HDX-MS reactions were performed in a similar manner as is outlined in previous publications. HDX reactions were conducted in a final reaction volume of 50 µL with a final Sgl1 concentration of 0.6 µM (30 pmol). Exchange was carried out in triplicate for a single time point (3 s at 4 °C). Hydrogen deuterium exchange was initiated by the addition of 48 µL of D2O buffer (100 mM NaCl (20 mM pH 6.0 Bis-Tris), 90.5% D2O (V/V) to 1 µL of protein and 1 µL of H2O. Exchange was terminated by the addition of ice-cold acidic quench buffer, resulting in a final concentration of 0.6 M guanidine-HCl and 0.9% FA post quench. Samples were immediately frozen in liquid nitrogen and stored at −80 °C. Fully deuterated samples were generated by first denaturing the protein in 2 M guanidine for 5 min at 20 °C. Following denaturing, 48 µL of D2O buffer was added to the denatured protein and allowed to incubate for 5 min at 20 °C before quenching. Samples were flash frozen and stored at −80 °C until injection onto the ultra-performance liquid chromatography (UPLC) system for proteolytic cleavage, peptide separation, and injection onto a QTOF for mass analysis.
Protein sample was rapidly thawed and injected onto a UPLC system kept in a cold box at 2 °C. The protein was run over two immobilized pepsin columns (Applied Biosystems; Porosyme 2-3131-00) and the peptides were collected onto a VanGuard Precolumn trap (Waters). The trap was eluted in line with an ACQUITY 1.7 μm particle, 100 × 1 mm^2 C18 UPLC column (Waters), using a gradient of 5–36% B (Buffer A 0.1% formic acid, Buffer B 100% acetonitrile) over 16 min. MS experiments were performed on an Impact QTOF (Bruker) and peptide identification was done by running tandem MS (MS/MS) experiments run in data-dependent acquisition mode. The resulting MS/MS dataset was analyzed using PEAKS7 (PEAKS) and a false discovery rate was set at 1% using a database of purified proteins and known contaminants. HDExaminer Software (Sierra Analytics) was used to automatically calculate the level of deuterium incorporation into each peptide. All peptides were manually inspected for correct charge state and presence of overlapping peptides. Deuteration levels were calculated using the centroid of the experimental isotope clusters, with correction for back exchange generated using the fully deuterated sample. The mass spectrometry proteomics data have been deposited to the ProteomeXchange Consortium via the PRIDE partner repository[31] with the dataset identifier PXD024981.
With NACDGPNCLNY, the “% Deuterium incorporation, Average” value came to 17.8%.
Turning to NADAIGVIRKKYWSIVQ, the “% Deuterium incorporation, Average” value is given as 33.7%.
The figure for NASRSAGHNPNLGQTTSTSADGDD is 102.3%.
NASRSAGHNPNLGQTTSTSADGDDST: the “% Deuterium incorporation, Average” value was 100.5%.
Regarding NASRSAGHNPNLGQTTSTSADGDDSTVSSRQTSKVDL, the “% Deuterium incorporation, Average” value turned out to be 102.1%.
The figure for NASRSAGHNPNLGQTTSTSADGDDSTVSSRQTSKVDLIE is 100.2%.
For NYAIWNYVPDNVHE, the “% Deuterium incorporation, Average” value worked out at 17.1%.
Take NYVPDNVHE: the “% Deuterium incorporation, Average” value came to 30.1%.
To NYVPDNVHEWGDN belongs 41.1%.
To NYVPDNVHEWGDNW belongs 32.4%; to PVLRQPPKLPES, 47.4%.
For PVLRQPPKLPESF, the “% Deuterium incorporation, Average” value was 50.6%.
PVLRQPPKLPESFL: the “% Deuterium incorporation, Average” value was 40.7%.
In the case of PVTGNPVSPHYIHSSTL, the “% Deuterium incorporation, Average” value is on record as 36.8%.
In the case of PVTGNPVSPHYIHSSTLHF, the “% Deuterium incorporation, Average” value was found to be 30.4%.
To QDVNGRS belongs 17.0%.
To QLKKGPSPTPIEG belongs 10.2%; to QQLKKGPSPTPIEG, 10.8%; to RADDIANE, 33.8%.
For RAIKSSDPSS, the “% Deuterium incorporation, Average” value is given as 103.0%.
To RAIKSSDPSSV belongs 101.5%; to RAIKSSDPSSVS, 104.6%; to RAIKSSDPSSVSIRSVPYSSF, 104.9%.
Consider RFTGGSGAPLWTL, for which the “% Deuterium incorporation, Average” value is 6.3%.
Take RGVNLSGSAKHPNNQPSH: the “% Deuterium incorporation, Average” value amounted to 44.0%.
Consider RGVNLSGSAKHPNNQPSHIREGF, for which the “% Deuterium incorporation, Average” value is 44.7%.
To RIRLHHPESIHF belongs 6.5%; to RRDLGYV, 59.6%; to RRDLGYVQQGN, 98.6%.
In the case of RRDLGYVQQGNF, the “% Deuterium incorporation, Average” value is on record as 98.0%.
To RSVPYSSF belongs 93.7%; to RVFMDPHQDV, 5.4%.
For the substance RVFMDPHQDVW, the “% Deuterium incorporation, Average” value worked out at 3.4%.
As to RVFMDPHQDVWSRF, the “% Deuterium incorporation, Average” value was determined as 4.4%.
Regarding RWWYPVPGTG, the “% Deuterium incorporation, Average” value came out at 40.0%.
For RWWYPVPGTGE, the “% Deuterium incorporation, Average” value is given as 36.9%.
To RWWYPVPGTGEEV belongs 29.8%.
The figure for SADGDDSTVSSRQTSKVDL is 103.2%; for SINEPGEGL it is 13.9%.
As for SIRSVPYSSF, the “% Deuterium incorporation, Average” value worked out at 96.6%.
The figure for SLEHAGPKEYD is 7.5%; for SLEHAGPKEYDYA it is 6.0%.
The figure for SRFTGGSGAPLWTL is 5.6%; for SRSAGHNPNLGQTTSTSADGDD it is 102.7%; for SRSAGHNPNLGQTTSTSADGDDSTVSSRQTSKVDL it is 101.7%.
The figure for SSRIRLHHPESIHF is 4.1%.
With STLPTNPGHQVD, the “% Deuterium incorporation, Average” value came out at 53.3%.
For STLPTNPGHQVDF, the “% Deuterium incorporation, Average” value is reported as 73.1%.
The figure for STNSNSLTNSSA is 102.0%; for STNSNSLTNSSAT it is 101.5%.
For the substance STNSNSLTNSSATL, the “% Deuterium incorporation, Average” value is on record as 102.1%.
The figure for STNSNSLTNSSATLTVPMSG is 99.8%; for STNSNSLTNSSATLTVPMSGASKLRPSPSV it is 91.4%.
